In patent publication US20040005639A1, “Glycerylaldehyde-3-phosphate dehyrogenase promoter inducing cell death” (priority 2000, published 2004):

What was measured:
CGCs = assay: Probability of survival of CGCs treated with AraC; format: cell-based, rat
Procedure: (§1) CGCs were prepared according to the previous report (J. Neurochem., 66,928-935 (1996)). 16 hours after plating, the following were mixed and added to the non-serum cultures. In addition, it mixed beforehand and added in the culture so that the ratio of A and B might be set to 5:1, it might serve at a final concentration of 2 micro g/mL, C might be set to 1 micro L/micro g DNA and D might be set to 6 micro L/micro g DNA.
(§2) The cells were washed 20 hours after plating and the culture was continued for further 4 hours. […]
The probability of survival of CGCs treated with AraC (500 micro M) was 68% for 14 hours and 44% for 24 hours.

[1] = test system: rat cerebellum origin granule cells (CGCs); assay: Reporter assay: luciferase activity of CGCs transfected with promoter-pGL3-enhanser vector, after AraC addition; format: cell-based; settings: for luciferase activity: vector without promoter set to 1.0
Procedure: The plasmid which inserted promoter sequence (p104-pCR-Script Amp SK (+) and p302-pCR-Script Amp SK (+)) were cleaved at BsmBI site which exists just upstream of translation starting site of GAPDH protein and was created blunt-ends. The fragment was cleaved at the MluI site of 5′-end, sequence including promoter sequence was excised.
The pGL3-enhanser vector (Promega) was opened the MluI-SmaI site, and each promoter sequence excised here was inserted.
Reporter assay was performed with each vector as follows. Reporter assay used the primary culture cell of rat cerebellum origin granule cells (CGCs).
as §1
A) p104-pGL3-enhanser vector or p302-pGL3-enhanser vector both vector contains a firefly luciferase gene on the downstream of the promoter.
B) pRL-SV40 vector (it includes Renilla luciferase gene as an internal standard enzyme on the downstream of SV40 promoter currently activated constantly),
as §2

Molecule: Nc1ccn([C@@H]2O[C@H](CO)[C@@H](O)[C@@H]2O)c(=O)n1 [AraC, cytosine arabinoside]
- probability of survival of CGCs (CGCs; AraC 10 micro M, 14 or 24-hours culture): more than 90%
- probability of survival of CGCs (CGCs; AraC 500 micro M, 14 hours): 68%
- probability of survival of CGCs (CGCs; AraC 500 micro M, 24 hours): 44%

B1: p104: 1.2 kb rat GAPDH promoter fragment amplified from the EcoRV genome library, SEQ ID NO: 1 (nucleic acid, listed as Rattus norvegicus)
DNA: ACTATAGGGCACGCGTGGTCGATGGCTTGGGTTGGTATCTACGACTAAACAAGAGAGAGAATGAGATTAATCTCCGCATAATAGTGTGTATCGGCTGAACATACACAGACACACACAGACACACACATACACACAGACACAGAAACATACGCTTAGCACACACAGAAGCACACATACACAGACAGAAACTCACATACACAGAGACCCACAGATATAGACACACAGAGACACAGATGCACACACAGACCTACTTACACACTCATAGACATAGATACACACACATAGACACACACTGACATATCAACACACCTACAGACACACACACCACACATACGCACACACACATACATGAACACACACATACACACGCACACACATACACACACATGGAAACACATGTTTTATGAAGATCTAGGAATTACCCCAATCACAGTAGAATGGATGCCTGTGTTGGGACCCAGGAGGGACAGGAAATAGAAATGGGCTAGGGGGCTGGAGAGATGGCTCAGAGGTTAAGAGCACTGTCTGCTCTTCCAGAGGTCCGGAGTTCAATTCCCAGAAACCACATGGTGGCTCACAACCATCTATAATCAGGTCTGGTGCCCTCTTCTGGCCTGCAGGCATACATGCAAGCAGAAAGCTGTATGATGTATACATAATAAATAAATAAATTTGAAAAAAAAGAAATGGGCTTAGGGGTGATGGGAAGAGAAGGACTCTGAAGGTCTGTAGACCGCTCATAAACTGGGGCAGACGTTGCTCCTGCTTGAGCACCTGACTTCCCAGTCCATTGCCACCATGGTCTTTGTGCCACCATGGCCAGTCCAAGGCCATCCTTAAACAGGCTGCAAAAAGTTTTAACTAGGACCATTAGATTGTCTCTTAAAACTATGAAAGGTTTTACTTTATTTCTCTCTCTCTCTCTCTCTCTCTCTCTCTCTCATTTTAAAAATATTTTTTCGGCTCTCTGCTCCTCCCTGTTCTAGAGACAGCCGCATCTTCTTGTGCAGTGCCAGCCTCGTCTCATAGACAAGATGGTGAAGGTCGGTGTGAACGGATTTGGCCGTATCGGACGCCTGGTTACCAGGGCTGCCTTCTCTTGTGACAAAGTGGACACTGTTGCC
modifications: CDS (1035)..(1124)
- increase of luciferase activity ([1]; 24 hours after AraC addition, CGCs transformed by p104-pGL3-enhanser vector): 1.7 times
- promoter activation ([1]; AraC 10 micro M (Table 2), result in words): neither of the two promoters (p104 and p302) showed significant activation
- luciferase activity ([1]; Table 1, AraC 500 micro M, culture time after addition 14 hours): 1.7
- luciferase activity ([1]; Table 1, AraC 500 micro M, culture time after addition 24 hours): 2.4
- luciferase activity ([1]; Table 2, AraC 10 micro M, culture time after addition 14 hours): 1.2
- luciferase activity ([1]; Table 2, AraC 10 micro M, culture time after addition 24 hours): 1.3
